{"source": "patent US8597922B2", "about": "“Methods and compositions for producing olefins” (LS9, Inc., priority 2007, dated 2013)", "molecules": {"B1": {"name": "ORF880: olefin-producing enzyme (fatty acid decarboxylase) from Jeotgalicoccus sp. ATCC 8456, SEQ ID NO:2 (protein)", "chain": "MATLKRDKGLDNTLKVLKQGYLYTTNQRNRLNTSVFQTKALGGKPFVVVTGKEGAEMFYNNDVVQREGMLPKRIVNTLFGKGAIHTVDGKKHVDRKALFMSLMTEGNLNYVRELTRTLWHANTQRMESMDEVNIYRESIVLLTKVGTRWAGVQAPPEDIERIATDMDIMIDSFRALGGAFKGYKASKEARRRVEDWLEEQIIETRKGNIHPPEGTALYEFAHWEDYLGNPMDSRTCAIDLMNTFRPLIAINRFVSFGLHAMNENPITREKIKSEPDYAYKFAQEVRRYYPFVPFLPGKAKVDIDFQGVTIPAGVGLALDVYGTTHDESLWDDPNEFRPERFETWDGSPFDLIPQGGGDYWTNHRCAGEWITVIIMEETMKYFAEKITYDVPEQDLEVDLNSIPGYVKSGFVIKNVREVVDRT", "modifications": "Jeotgalicoccus sp. ATCC8456"}}, "assay_type_in_all_cases": "cell-based", "key": {"E. coli": {"system": "E. coli", "assay": "Heterologous expression of 8456_orf880 in E. coli with fatty acid feeding", "method": "ATCC 8456 cells were grown in 15 mL TSBYE medium (3% Tryptic Soy Broth+0.5% Yeast Extract). Fatty acids were added to the culture medium at final concentrations of 0.5 g/l (0.05%). After growth for 40-48 h at 30° C., cells from 5 mL of culture were pelleted, resuspended in 1 mL methanol, sonicated for 30 min, and extracted with 4 mL hexane. After solvent evaporation, samples were resuspended in 0.1 mL hexane and analyzed by GC-MS.\nJeotgalicoccus ATCC 8456 ORF880 was identified as one of the two major proteins in a highly purified enzyme fraction that catalyzed the conversion of free fatty acids to α-olefins. The genomic DNA encoding ATCC 8456_orf880 was cloned into pCDF-Duet1 under the control of the T7 promoter, and E. coli was transformed with various vectors, as described below. The E. coli cells were grown, and the hydrocarbons produced by the cells were analyzed as described in Example 2. When 0.05% stearic acid was fed to cultures of E. coli transformed with the 8456_orf880-containing vector, the expression of 8456_orf880 led to the formation of 1-heptadecene in E. coli (see FIG. 8, depicting GC/MS traces of α-olefins from E. coli either without (black) or with (gray) expression of 8456_orf880). […] Additionally, when E. coli cells expressing 8456_orf880 protein were fed with 0.05% palmitic acid or 0.05% eicosanoic acid, the production of 1-pentadecene or 1-nonadecene, respectively, was observed."}, "E. coli MG1655 ΔfadD": {"system": "E. coli MG1655 ΔfadD", "assay": "α-Olefins from glucose by expression of orf880 in E. coli MG1655 ΔfadD", "details": "glucose (1%, w/v) only carbon source, versus vector-only control", "method": "The genomic DNA encoding ATCC 8456_orf880, which was codon-optimized for expression in E. coli (SEQ ID NO:4), was cloned into vector OP80 (pCL1920 derivative) under the control of the Ptrc promoter, and E. coli MG1655 ΔfadD was transformed with the resulting vector. The E. coli cells were grown at 37° C. in M9 mineral medium supplemented with 20 μg/mL uracil and 100 μg/mL spectinomycin. Glucose (1%, w/v) was the only source of carbon and energy. When the culture reached an OD600 of 0.8 to 1.0, IPTG (1 mM) and 0.5 mM delta-aminolaevulinic acid (heme biosynthesis precursor) were added. The temperature was shifted to 25° C. After growth for an additional 18 to 24 h at 25° C., the cells from 10 mL of culture were pelleted, resuspended in 1 mL methanol, sonicated for 30 min, and extracted with 4 mL hexane. After solvent evaporation, the samples were resuspended in 0.1 mL hexane and analyzed by GC-MS."}, "[1]": {"system": "S. cerevisiae (BY4741) yeast cells", "assay": "α-Olefin production in Saccharomyces cerevisiae by heterologous expression of orf880", "details": "expressed in S. cerevisiae", "method": "Genomic DNA encoding Jeotgalicoccus sp. ATCC 8456_orf880 is cloned into the ApaI and XhoI sites of the yeast expression vector pESC-His. S. cerevisiae (BY4741) yeast cells are then transformed with either a plasmid containing orf880 or a plasmid not containing orf880. The transformed yeast cells are cultured under suitable conditions to allow expression of ORF880. The cells are pelleted and then lysed using YeastBuster™ (Novagen, Madison, Wis.). The α-olefins are extracted and analyzed as described in Examples 6 and 7."}, "B. subtilis IHA01": {"system": "B. subtilis IHA01", "assay": "α-Olefin production in Bacillus subtilis by heterologous expression", "details": "0.05% stearic acid, versus vector only control", "method": "Genomic DNA encoding Jeotgalicoccus ATCC 8456_orf880 was cloned into the BamHI and XbaI sites of vector pHT01 under the control of the Pgrac promoter. B. subtilis IHA01 (lacA::spec leuB8 metB5 r(−)m(+) Sp, obtained from Bacillus Genetic Stock Center, Columbus, Ohio, strain number BGSC 1A785) was transformed with the resulting vector. The B. subtilis cells were grown at 37° C. in minimal medium supplemented with 2% glucose, 0.3 mM leucine, 0.3 mM methionine, and 10 mg/L chloramphenicol. When the cultures reached an OD600 of 0.8 to 1.0, 1 mM IPTG was added (to induce expression of orf880) along with 0.5 mM 5-amino laevulinic acid (as a precursor for heme biosynthesis) and 0.05% stearic acid (as a substrate for ORF880). The temperature was shifted to 25° C. and after growth for additional 18-24 h at 25° C., cells from a 1 mL culture were pelleted, resuspended in 100 μL methanol, sonicated for 1 h, and extracted with 300 μL ethyl acetate. 300 μL of water was added before separating the organic layer by centrifugation at 15,000 rpm for 5 min. The solvent layer was analyzed by GC-MS.\nGenomic DNA encoding Corynebacterium efficiens YS-134 orfCE2459 was cloned into the BamHI and XbaI sites of vector pHT01 under the control of the Pgrac promoter and transformed into B. subtilis IHA01 cells. The resulting cells were grown, extracted, and analyzed as described in Example 9."}}, "data": [{"molecule": "B1", "values": [{"measurement": "α-olefin produced", "setting": "E. coli; 0.05% eicosanoic acid fed", "result": "1-nonadecene"}, {"measurement": "α-olefin produced", "setting": "E. coli; 0.05% palmitic acid fed", "result": "1-pentadecene"}, {"measurement": "α-olefin produced", "setting": "E. coli; 0.05% stearic acid fed", "result": "1-heptadecene"}, {"measurement": "α-olefins produced", "setting": "E. coli MG1655 ΔfadD", "result": "1-pentadecene and heptadecadiene"}, {"measurement": "α-olefin production", "setting": "[1]", "result": "produces α-olefins"}, {"measurement": "α-olefin produced from stearic acid", "setting": "B. subtilis IHA01", "result": "1-heptadecene"}]}]}
